B1: EF-hand domain-containing protein 1 (Homo sapiens), Q5JVL4 (parent)
chain: MVSNPVHGLPFLPGTSFKDSTKTAFHRSQTLSYRNGYAIVRRPTVGIGGDRLQFNQLSQAELDELASKAPVLTYGQPKQAPPADFIPAHVAFDKKVLKFDAYFQEDVPMSTEEQYRIRQVNIYYYLEDDSMSVIEPVVENSGILQGKLIKRQRLAKNDRGDHYHWKDLNRGINITIYGKTFRVVDCDQFTQVFLESQGIELNPPEKMALDPYTELRKQPLRKYVTPSDFDQLKQFLTFDKQVLRFYAIWDDTDSMYGECRTYIIHYYLMDDTVEIREVHERNDGRDPFPLLMNRQRVPKVLVENAKNFPQCVLEISDQEVLEWYTAKDFIVGKSLTILGRTFFIYDCDPFTRRYYKEKFGITDLPRIDVSKREPPPVKQELPPYNGFGLVEDSAQNCFALIPKAPKKDVIKMLVNDNKVLRYLAVLESPIPEDKDRRFVFSYFLATDMISIFEPPVRNSGIIGGKYLGRTKVVKPYSTVDNPVYYGPSDFFIGAVIEVFGHRFIILDTDEYVLKYMESNAAQYSPEALASIQNHVRKREAPAPEAESKQTEKDPGVQELEALIDTIQKQLKDHSCKDNIREAFQIYDKEASGYVDRDMFFKICESLNVPVDDSLVKELIRMCSHGEGKINYYNFVRAFSN
partner: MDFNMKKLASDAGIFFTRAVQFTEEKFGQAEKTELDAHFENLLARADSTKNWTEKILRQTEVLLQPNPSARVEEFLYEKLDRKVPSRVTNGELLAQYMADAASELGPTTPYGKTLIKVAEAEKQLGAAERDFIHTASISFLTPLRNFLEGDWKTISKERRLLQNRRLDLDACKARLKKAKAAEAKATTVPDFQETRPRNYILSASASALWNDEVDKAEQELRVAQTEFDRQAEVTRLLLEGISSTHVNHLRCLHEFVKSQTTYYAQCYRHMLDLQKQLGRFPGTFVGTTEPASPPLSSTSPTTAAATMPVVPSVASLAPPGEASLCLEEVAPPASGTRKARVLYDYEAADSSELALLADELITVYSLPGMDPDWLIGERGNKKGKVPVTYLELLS
B2: NADH dehydrogenase [ubiquinone] 1 alpha subcomplex assembly factor 4 (Homo sapiens), Q9P032 (parent)
chain: MGALVIRGIRNFNLENRAEREISKMKPSVAPRHPSTNSLLREQISLYPEVKGEIARKDEKLLSFLKDVYVDSKDPVSSLQVKAAETCQEPKEFRLPKDHHFDMINIKSIPKGKISIVEALTLLNNHKLFPETWTAEKIMQEYQLEQKDVNSLLKYFVTFEVEIFPPEDKKAIRSK
B3: Homeobox protein SIX1 (Homo sapiens), Q15475 (parent)
chain: MSMLPSFGFTQEQVACVCEVLQQGGNLERLGRFLWSLPACDHLHKNESVLKAKAVVAFHRGNFRELYKILESHQFSPHNHPKLQQLWLKAHYVEAEKLRGRPLGAVGKYRVRRKFPLPRTIWDGEETSYCFKEKSRGVLREWYAHNPYPSPREKRELAEATGLTTTQVSNWFKNRRQRDRAAEAKERENTENNNSSSNKQNQLSPLEGGKPLMSSSEEEFSPPQSPDQNSVLLLQGNMGHARSSNYSLPGLTASQPSHGLQTHQHQLQDSLLGPLTSSLVDLGS
partner: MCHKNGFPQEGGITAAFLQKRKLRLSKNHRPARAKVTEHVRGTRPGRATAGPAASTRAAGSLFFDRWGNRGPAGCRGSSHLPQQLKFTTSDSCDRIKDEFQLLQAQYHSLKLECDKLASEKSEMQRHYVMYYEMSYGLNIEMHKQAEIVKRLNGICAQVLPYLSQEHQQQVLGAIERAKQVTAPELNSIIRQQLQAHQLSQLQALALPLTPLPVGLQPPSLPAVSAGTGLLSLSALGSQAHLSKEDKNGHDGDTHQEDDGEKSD
B4: Sialidase-2 (Homo sapiens), Q9Y3R4 (parent)
chain: MASLPVLQKESVFQSGAHAYRIPALLYLPGQQSLLAFAEQRASKKDEHAELIVLRRGDYDAPTHQVQWQAQEVVAQARLDGHRSMNPCPLYDAQTGTLFLFFIAIPGQVTEQQQLQTRANVTRLCQVTSTDHGRTWSSPRDLTDAAIGPAYREWSTFAVGPGHCLQLHDRARSLVVPAYAYRKLHPIQRPIPSAFCFLSHDHGRTWARGHFVAQDTLECQVAEVETGEQRVVTLNARSHLRARVQAQSTNDGLDFQESQLVKKLVEPPPQGCQGSVISFPSPRSGPGSPAQWLLYTHPTHSWQRADLGAYLNPRPPAPEAWSEPVLLAKGSCAYSDLQSMGTGPDGSPLFGCLYEANDYEEIVFLMFTLKQAFPAEYLPQ
B5: Carbonyl reductase [NADPH] 3 (Homo sapiens), O75828 (parent)
chain: MSSCSRVALVTGANRGIGLAIARELCRQFSGDVVLTARDVARGQAAVQQLQAEGLSPRFHQLDIDDLQSIRALRDFLRKEYGGLNVLVNNAAVAFKSDDPMPFDIKAEMTLKTNFFATRNMCNELLPIMKPHGRVVNISSLQCLRAFENCSEDLQERFHSETLTEGDLVDLMKKFVEDTKNEVHEREGWPNSPYGVSKLGVTVLSRILARRLDEKRKADRILVNACCPGPVKTDMDGKDSIRTVEEGAETPVYLALLPPDATEPQGQLVHDKVVQNW
B6: U4/U6 small nuclear ribonucleoprotein Prp31 (Homo sapiens), Q8WWY3 (parent)
chain: MSLADELLADLEEAAEEEEGGSYGEEEEEPAIEDVQEETQLDLSGDSVKTIAKLWDSKMFAEIMMKIEEYISKQAKASEVMGPVEAAPEYRVIVDANNLTVEIENELNIIHKFIRDKYSKRFPELESLVPNALDYIRTVKELGNSLDKCKNNENLQQILTNATIMVVSVTASTTQGQQLSEEELERLEEACDMALELNASKHRIYEYVESRMSFIAPNLSIIIGASTAAKIMGVAGGLTNLSKMPACNIMLLGAQRKTLSGFSSTSVLPHTGYIYHSDIVQSLPPDLRRKAARLVAAKCTLAARVDSFHESTEGKVGYELKDEIERKFDKWQEPPPVKQVKPLPAPLDGQRKKRGGRRYRKMKERLGLTEIRKQANRMSFGEIEEDAYQEDLGFSLGHLGKSGSGRVRQTQVNEATKARISKTLQRTLQKQSVVYGGKSTIRDRSSGTASSVAFTPLQGLEIVNPQAAEKKVAEANQKYFSSMAEFLKVKGEKSGLMST
partner: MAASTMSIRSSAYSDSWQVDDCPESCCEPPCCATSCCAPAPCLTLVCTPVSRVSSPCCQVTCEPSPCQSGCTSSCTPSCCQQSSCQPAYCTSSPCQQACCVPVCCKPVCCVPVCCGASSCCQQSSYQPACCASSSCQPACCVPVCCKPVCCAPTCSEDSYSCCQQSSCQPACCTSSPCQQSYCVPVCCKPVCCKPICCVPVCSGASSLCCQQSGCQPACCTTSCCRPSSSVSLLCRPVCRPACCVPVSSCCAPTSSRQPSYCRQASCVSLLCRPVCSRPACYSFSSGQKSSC
B7: Ribose-phosphate pyrophosphokinase 1 (Homo sapiens), P60891 (parent)
chain: MPNIKIFSGSSHQDLSQKIADRLGLELGKVVTKKFSNQETCVEIGESVRGEDVYIVQSGCGEINDNLMELLIMINACKIASASRVTAVIPCFPYARQDKKDKSRAPISAKLVANMLSVAGADHIITMDLHASQIQGFFDIPVDNLYAEPAVLKWIRENISEWRNCTIVSPDAGGAKRVTSIADRLNVDFALIHKERKKANEVDRMVLVGDVKDRVAILVDDMADTCGTICHAADKLLSAGATRVYAILTHGIFSGPAISRINNACFEAVVVTNTIPQEDKMKHCSKIQVIDISMILAEAIRRTHNGESVSYLFSHVPL
partner: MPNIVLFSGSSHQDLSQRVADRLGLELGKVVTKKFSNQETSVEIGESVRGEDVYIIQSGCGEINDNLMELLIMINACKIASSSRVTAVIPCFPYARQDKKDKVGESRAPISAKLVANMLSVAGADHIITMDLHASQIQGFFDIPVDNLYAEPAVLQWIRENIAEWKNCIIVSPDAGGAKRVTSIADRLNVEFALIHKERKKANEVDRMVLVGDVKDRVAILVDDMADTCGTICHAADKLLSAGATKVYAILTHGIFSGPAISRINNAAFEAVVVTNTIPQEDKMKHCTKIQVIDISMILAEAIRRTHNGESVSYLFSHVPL

Variants of: B1
Conditions: with shlb2_human SH3GLB2, Q9NR46

Row | effect of a mutation on the interaction | Variant
1 | disrupting interaction strength | R221H
2 | with no effect | R159W

Variants of: B2
Conditions: with NDUFAF3, Q9BU61-2
NDUFAF3, Q9BU61-2, sequence (Q9BU61 58-184): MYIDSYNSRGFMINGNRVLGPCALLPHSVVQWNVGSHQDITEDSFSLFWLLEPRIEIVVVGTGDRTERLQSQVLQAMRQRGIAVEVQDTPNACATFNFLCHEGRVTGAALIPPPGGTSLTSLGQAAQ

Row | effect of a mutation on the interaction | Variant
3 | with no effect | L65P

Variants of: B3
Conditions: with TLE5, Q08117-2

Row | effect of a mutation on the interaction | Variant
4 | with no effect | D227Y
5 | with no effect | R110W
6 | with no effect | R112C

Variants of: B4
Conditions: with nt2na_human NOTCH2NLA

Row | effect of a mutation on the interaction | Variant
7 | with no effect | R41Q

Variants of: B5
Conditions: with sdcb1_human SDCBP

Row | effect of a mutation on the interaction | Variant
8 | disrupting interaction strength | V244M

Variants of: B6
Conditions: with kr109_human KRTAP10-9, P60411

Row | effect of a mutation on the interaction | Variant
9 | with no effect | L107V

Variants of: B7
Conditions: with PRPS2, P11908-2

Row | effect of a mutation on the interaction | Variant
10 | with no effect | D52H
